Results reported in patent US20240084027A1 (BEIJING MABWORKS, published 2024).
Where two headings read alike, the source gives them in different places.

T1: monkey CD40 on HEK293A/monkey CD40 cells (monkey, UniProt P25942 21-277 (human entry))
T1 chain: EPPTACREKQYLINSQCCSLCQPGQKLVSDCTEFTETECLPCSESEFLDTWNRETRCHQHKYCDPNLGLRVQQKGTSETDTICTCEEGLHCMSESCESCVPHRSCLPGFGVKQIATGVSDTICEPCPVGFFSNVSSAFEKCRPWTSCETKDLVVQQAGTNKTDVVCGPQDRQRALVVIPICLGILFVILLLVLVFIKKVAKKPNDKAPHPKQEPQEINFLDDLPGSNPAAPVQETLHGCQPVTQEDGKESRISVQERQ


Columns and labels:
[1] = molecular target: T1, monkey CD40 on HEK293A/monkey CD40 cells; assay: FACS on HEK293A/monkey CD40 cells
Protocol: (§1) The bispecific antibodies as prepared above were tested for their binding capability to cell surface human, monkey and mouse CD40 proteins by FACS, using the HEK293A cells prepared in Example 1 that stably expressed human, monkey or mouse CD40. Briefly, a 96-well plate was seeded with 10⁵ HEK293A cells in 50 μl PBS, and then added with 100 μl serially diluted anti-CD40 antibody 714VH2VL2 and the bispecific antibodies of the disclosure (starting concentration at 40 μg/ml). After incubation at 4° C. for 1 h, the plate was washed by PBST for 3 times. The plate was added with 1:500 diluted APC-goat anti-mouse IgG (Cat #:405308, BioLegen, USA), incubated at 4° for 1 h, washed with PBS for 3 times, and subjected to fluorescence measurement in a FACS machine (BD).

[2] = molecular target: T2, human CD40 on HEK293A/human CD40 cells (human, UniProt P25942 21-277); assay: cell-based or functional assay
[3] = molecular target: T2, human CD40 on HEK293A/human CD40 cells; assay: FACS on HEK293A/human CD40 cells
Protocol: as §1
(§2) Following the protocols in Example 4 and Example 5, the bi- or multi-specific antibodies of the disclosure were tested for their binding capability to human PD-L1 and human CD40 proteins by FACS using the HEK293A cells prepared in Example 1 that stably expressed human PD-L1 or human CD40.

[4] = molecular target: T2, human CD40 on HEK293A/human CD40 cells; assay: FACS on HEK293A/human CD40 cells; remark: listed apart in the source
Protocol: as §1

[5] = molecular target: T2, human CD40 on HEK293A/human CD40 cells; assay: FACS on HEK293A/human CD40 cells; remark: listed apart in the source
Protocol: as §1, §2

[6] = molecular target: T2, human CD40 on HEK293A/human CD40 cells; assay: cell-based or functional assay; remark: listed apart in the source
[7] = molecular target: T2, human CD40 on HEK293A/human CD40 cells; assay: cell-based or functional assay; remark: listed apart in the source
human PD-L1-his protein = molecular target: T3, human PD-L1-his protein (human, UniProt Q9NZQ7 19-238); assay: SPR (BIAcore 8K), human PD-L1-his coupled to CM5 chip, antibody injected
T3 construct: extracellular domain; also called human PD-L1 (ECD)-his; human PD-L1 protein; not shown: his tag
T3 sequence (Q9NZQ7 19-238): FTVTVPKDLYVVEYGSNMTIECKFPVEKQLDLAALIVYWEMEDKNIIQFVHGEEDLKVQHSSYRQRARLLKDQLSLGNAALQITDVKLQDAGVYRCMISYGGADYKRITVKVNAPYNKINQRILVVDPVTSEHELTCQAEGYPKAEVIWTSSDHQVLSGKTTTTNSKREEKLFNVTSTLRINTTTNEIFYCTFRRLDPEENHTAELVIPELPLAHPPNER
Excerpt: (§3) Using BIAcore™ 8K instrument (GE Life Sciences, US), the binding affinity of the bi- or multi-specific antibodies to human CD40 and PD-L1 was quantitatively measured. Briefly, 100-200 response units (RU) of human CD40-his protein (Cat #:10774-1108H, Sino Biological, CN) or human PD-L1-his protein (Cat #:10084-H08H, Sino Biological, CN) were coupled to CM5 biosensor chips (Cat #:BR-1005-30, GE Life Sciences. USA). The un-reacted groups were then blocked with 1 M ethanolamine. Serially diluted antibodies at concentrations ranging from 0.3 μM to 10 μM were injected into the SPR running buffer (HBS-EP buffer, pH7.4, Cat #:BR-1006-69, GE Life Sciences, USA) at 30 μL/min. The binding affinity was calculated with the RUs of blank controls subtracted, and the association rate (kₐ) and dissociation rate (kd) were determined using the one-to-one Langmuir binding model (BIA Evaluation Software, GE Life Sciences, USA). The equilibrium dissociation constant KD was calculated as the kd/kₐ ratio.

human CD40-his protein = molecular target: T4, human CD40-his protein (human, UniProt P25942 21-193); assay: SPR (BIAcore 8K), human CD40-his coupled to CM5 chip, antibody injected
T4 construct: Bought protein; also called human CD40 protein; CD40 molecules; not shown: his tag
Excerpt: as §3

[8] = molecular target: T5, human PD-L1 on HEK293A/human PD-L1 cells (human, UniProt Q9NZQ7 19-290); assay: FACS blocking assay on HEK293A/human PD-L1 cells; blocked ligand PD-1-Fc
T5 sequence (Q9NZQ7 19-290 limits assumed): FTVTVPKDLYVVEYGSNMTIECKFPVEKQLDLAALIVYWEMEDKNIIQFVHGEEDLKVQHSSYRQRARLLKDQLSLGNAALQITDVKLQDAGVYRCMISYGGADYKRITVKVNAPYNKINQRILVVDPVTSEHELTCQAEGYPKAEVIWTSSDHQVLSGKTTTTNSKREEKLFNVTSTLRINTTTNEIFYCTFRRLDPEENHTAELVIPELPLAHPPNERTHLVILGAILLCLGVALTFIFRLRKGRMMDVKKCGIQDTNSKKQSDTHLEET
Protocol: The bispecific antibodies were tested for their blocking activity on PD-1-PD-L1 binding by FACS using the HEK293A cells stably expressing human PD-L1 molecules as prepared in Example 1. Briefly, a 96-well plate was seeded with 10⁵ HEK293A/human PD-L1 cells in 100 μl cell culture medium, and then added with 50 μl serially diluted anti-PD-L1 antibody 56E5VH5VL4 or MBS307-3 molecules. After incubation at 4° C. for 1 h. the plate was washed with PBST for 3 times, added with 100 μl 200 μg/ml PD-1-Fc fusion proteins (Cat #:10377-10211, Sino Biological, CN), incubated at 4° C. for 1 h, washed with PBST for 3 times, and added with 1:500 diluted PE-goat anti-human IgG (Cat #:PAI-86078, Thermofisher, USA). After incubation at 4° C. for 1 h, the plate was washed with PBST for 3 times and measured for fluorescence using a FACS machine (BD).
Following the protocol of Example 7, the bi- or multi-specific antibodies were tested for their capability to block PD-1-PD-L1 binding by FACS, using the HEK293A cells prepared in Example 1 that stably expressed human PD-L1 molecules.

[9] = molecular target: T5, human PD-L1 on HEK293A/human PD-L1 cells; assay: FACS on HEK293A/human PD-L1 cells
Protocol: as §1, §2

EC50 (read off the curve) [1] | EC50 (read off the curve); HEK-Blue/CD40 reporter, OD630, plate coated with human PD-L1-his [2] | EC50 (read off the curve) [3] | EC50 (read off the curve) [4] | EC50 (read off the curve) [5] | EC50 (read off the curve); HEK-Blue/CD40 reporter, OD630, plate coated with human PD-L1-his [6] | EC50 (read off the curve); HEK-Blue/CD40 reporter, OD630, plate coated with human PD-L1-his [7] | Kd (human PD-L1-his protein) | Kd (human CD40-his protein) | IC50 (read off the curve) [8] | EC50 (read off the curve) [9] | Binder
~0.04 µg/mL | ~0.04 µg/mL | ~0.04 µg/mL | ~0.05 µg/mL | ~0.03 µg/mL | ~0.1 µg/mL | ~0.1 µg/mL |  |  |  |  | anti-CD40 antibody 7B4VH2VL2 (antibody, V domains shown, also called the monospecific anti-CD40 antibody; 714VH2VL2 [sic]) VH: QVQLQESGPGLVKPSDTLSLTCAVSGYSITTNYYWNWIRQPPGKGLEWMGYIKYDGSNNYNPSLKNRITISVDTSKNQFSLKLSSVTAVDTAVYYCARLDYWGQGTLVTVSS VL: DVVLTQSPLSLPVTLGQPASISCRSSQSLENSNGNTFLNWFQQRPGQSPRLLIYKVSNRFSGVPDRFSGSGSGTDFTLKISRVEAEDVGVYYCLQVTHVPFTFGQGTKLEIK
 |  | ~0.07 µg/mL |  |  | ~0.02 µg/mL |  | 42 nM | 3.11 nM | ~1 µg/mL | ~0.6 µg/mL | MBS307-6 (bispecific antibody, human IgG1, kappa, L234A L235A, Asymmetric: anti-CD40 antibody, knob chain without scFv, hole chain with the anti-PD-L1 scFv of 56E5VH5VL4; also called MBS307-6-1 + MBS307-6-2) heavy 1: QVQLQESGPGLVKPSDTLSLTCAVSGYSITTNYYWNWIRQPPGKGLEWMGYIKYDGSNNYNPSLKNRITISVDTSKNQFSLKLSSVTAVDTAVYYCARLDYWGQGTLVTVSSASTKGPSVFPLAPSSKSTSGGTAALGCLVKDYFPEPVTVSWNSGALTSGVHTFPAVLQSSGLYSLSSVVTVPSSSLGTQTYICNVNHKPSNTKVDKKVEPKSCDKTHTCPPCPAPEAAGGPSVFLFPPKPKDTLMISRTPEVTCVVVDVSHEDPEVKFNWYVDGVEVHNAKTKPREEQYNSTYRVVSVLTVLHQDWLNGKEYKCKVSNKALPAPIEKTISKAKGQPREPQVYTLPPSREEMTKNQVSLWCLVKGFYPSDIAVEWESNGQPENNYKTTPPVLDSDGSFFLYSKLTVDKSRWQQGNVFSCSVMHEALHNHYTQKSLSLSPGK heavy 2: QVQLQESGPGLVKPSDTLSLTCAVSGYSITTNYYWNWIRQPPGKGLEWMGYIKYDGSNNYNPSLKNRITISVDTSKNQFSLKLSSVTAVDTAVYYCARLDYWGQGTLVTVSSASTKGPSVFPLAPSSKSTSGGTAALGCLVKDYFPEPVTVSWNSGALTSGVHTFPAVLQSSGLYSLSSVVTVPSSSLGTQTYICNVNHKPSNTKVDKKVEPKSCDKTHTCPPCPAPEAAGGPSVFLFPPKPKDTLMISRTPEVTCVVVDVSHEDPEVKFNWYVDGVEVHNAKTKPREEQYNSTYRVVSVLTVLHQDWLNGKEYKCKVSNKALPAPIEKTISKAKGQPREPQVYTLPPSREEMTKNQVSLSCAVKGFYPSDIAVEWESNGQPENNYKTTPPVLDSDGSFFLVSKLTVDKSRWQQGNVFSCSVMHEALHNHYTQKSLSLSPGSGGGGSGGGGSQVQLQESGPGLVKPSQTLSLTCTVSGGSITSDYWNWIRQHPGNKLEYMGYISYTGSTYYNPSLKSRISITRDTSKNQFSLKLSSVTTADTAVYYCARYRDWDVRAMDYWGQGTTVTVSSGGGGSGGGGSGGGGSGGGGSDIVMTQSPDSLAVSLGEKVTMNCKSSQSLLISGNQKNFLTWYQQKPGQPPKLLIYWASTRESGVPDRFSGSGSGTDFTLTISSLQAEDEAVYYCQNDFGFPFTFGQGTKLTAK light: DVVLTQSPLSLPVTLGQPASISCRSSQSLENSNGNTFLNWFQQRPGQSPRLLIYKVSNRFSGVPDRFSGSGSGTDFTLKISRVEAEDVGVYYCLQVTHVPFTFGQGTKLEIKRTVAAPSVFIFPPSDEQLKSGTASVVCLLNNFYPREAKVQWKVDNALQSGNSQESVTEQDSKDSTYSLSSTLTLSKADYEKHKVYACEVTHQGLSSPVTKSFNRGEC
 |  |  |  | ~0.06 µg/mL |  | ~0.1 µg/mL | 11.9 nM | 1.43 nM |  |  | MBS307-7 (bispecific antibody, human IgG1, kappa, L234A L235A, Symmetric: full-length anti-CD40 antibody with the anti-PD-L1 scFv of 3C2VH6VL5 on each heavy chain) heavy: not shown light: DVVLTQSPLSLPVTLGQPASISCRSSQSLENSNGNTFLNWFQQRPGQSPRLLIYKVSNRFSGVPDRFSGSGSGTDFTLKISRVEAEDVGVYYCLQVTHVPFTFGQGTKLEIKRTVAAPSVFIFPPSDEQLKSGTASVVCLLNNFYPREAKVQWKVDNALQSGNSQESVTEQDSKDSTYSLSSTLTLSKADYEKHKVYACEVTHQGLSSPVTKSFNRGEC
